Experimental data from patent US20200054723A1 (ALLAKOS, published 2020).
Several values for one entry are separate records, joined by “and”; a condition that tells them apart may be missing. Equal entries are not always repeated. Values belong to the binder of their own block, whether it stands above or below them.

Experiments:
[1] = molecular target: T1, human Siglec-8 Domains 1 and 2 Fusion Protein (human); experiment: ELISA, coated fusion protein, antibody at 1 µg/ml
T1 construct: fused to human Ig-Fc, expressed in CHO cells; also called Domain 1 + 2-Fc
T1 sequence (chain, as listed by the source limits assumed): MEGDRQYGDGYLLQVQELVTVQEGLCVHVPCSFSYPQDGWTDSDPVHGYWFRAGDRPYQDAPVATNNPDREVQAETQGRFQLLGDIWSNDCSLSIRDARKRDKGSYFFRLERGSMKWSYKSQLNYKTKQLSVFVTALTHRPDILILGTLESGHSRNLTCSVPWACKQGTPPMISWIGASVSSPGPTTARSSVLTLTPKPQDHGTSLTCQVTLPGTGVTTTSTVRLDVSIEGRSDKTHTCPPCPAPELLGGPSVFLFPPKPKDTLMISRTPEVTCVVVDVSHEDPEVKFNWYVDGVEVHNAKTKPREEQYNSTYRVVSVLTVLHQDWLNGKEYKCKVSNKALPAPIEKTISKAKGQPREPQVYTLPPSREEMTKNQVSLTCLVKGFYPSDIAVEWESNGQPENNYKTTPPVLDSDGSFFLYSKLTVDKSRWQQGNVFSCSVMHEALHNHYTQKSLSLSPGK
Procedure: (§1) To identify the region comprising the epitope for anti-Siglec-8 antibodies, fusion proteins containing each of the Siglec-8 extracellular domains fused to human Ig-Fc were expressed and purified from CHO cells.
(§2) For the antibody binding assays, ELISA plates (MaxiSorp; Nunc) were coated overnight at 4° C. with fusion protein at 0.2 μg/ml and blocked for 1 hour at room temperature with 2% BSA in PBS. Antibodies at 1 μg/ml were added and the plates were incubated for 2 hours at room temperature. After washing the plates, horseradish peroxidase conjugated secondary antibody was added and the plates were incubated for 1 hour. Secondary antibodies were anti-human H+L HRP (Jackson ImmunoResearch, Catalog Number 709-035-149) for humanized antibodies or anti-mouse H+L HRP (Jackson ImmunoResearch, Catalog Number 715-035-151) for mouse antibodies. The plates were developed with TMB Substrate (Sigma, Catalog Number T0440-1L).

[2] = molecular target: T2, human Siglec-8 Domain 1 Fusion Protein (human); experiment: ELISA, coated fusion protein, antibody at 1 µg/ml
T2 construct: fused to human Ig-Fc, expressed in CHO cells; also called Domain 1-Fc
T2 sequence (chain, as listed by the source limits assumed): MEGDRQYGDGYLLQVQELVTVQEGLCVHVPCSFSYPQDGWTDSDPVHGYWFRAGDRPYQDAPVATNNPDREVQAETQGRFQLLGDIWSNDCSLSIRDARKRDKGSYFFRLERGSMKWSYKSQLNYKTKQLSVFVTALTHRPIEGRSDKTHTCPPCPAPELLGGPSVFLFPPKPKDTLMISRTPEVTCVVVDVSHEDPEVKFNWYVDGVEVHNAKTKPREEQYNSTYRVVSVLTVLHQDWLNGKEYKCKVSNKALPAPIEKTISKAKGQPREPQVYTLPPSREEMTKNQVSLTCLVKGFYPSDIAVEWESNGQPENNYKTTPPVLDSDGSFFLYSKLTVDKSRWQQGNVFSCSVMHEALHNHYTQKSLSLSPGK
Procedure: as §1, §2

[3] = molecular target: T3, human Siglec-8 Domains 1, 2, and 3 Fusion Protein (human); experiment: ELISA, coated fusion protein, antibody at 1 µg/ml
T3 construct: fused to human Ig-Fc, expressed in CHO cells; also called Domain 1 + 2 + 3-Fc
T3 sequence (chain, as listed by the source limits assumed): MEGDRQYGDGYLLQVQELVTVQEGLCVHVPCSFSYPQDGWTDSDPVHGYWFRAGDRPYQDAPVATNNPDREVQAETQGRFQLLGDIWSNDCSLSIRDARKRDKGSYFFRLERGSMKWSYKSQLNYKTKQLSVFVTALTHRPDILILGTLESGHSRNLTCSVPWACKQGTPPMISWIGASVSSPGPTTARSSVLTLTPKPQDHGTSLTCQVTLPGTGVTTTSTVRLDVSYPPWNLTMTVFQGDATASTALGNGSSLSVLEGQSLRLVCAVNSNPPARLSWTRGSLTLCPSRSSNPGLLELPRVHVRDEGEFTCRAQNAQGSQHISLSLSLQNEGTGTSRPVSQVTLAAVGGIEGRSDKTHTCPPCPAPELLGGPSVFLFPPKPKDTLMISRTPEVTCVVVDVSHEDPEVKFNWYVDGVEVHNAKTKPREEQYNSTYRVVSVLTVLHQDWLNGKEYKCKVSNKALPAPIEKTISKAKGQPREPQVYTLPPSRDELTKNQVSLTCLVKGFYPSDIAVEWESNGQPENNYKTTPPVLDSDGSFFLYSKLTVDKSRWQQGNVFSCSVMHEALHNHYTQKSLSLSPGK
Procedure: as §1, §2

[4] = molecular target: T4, recombinant human Siglec-8 extracellular domain (ECD) (human, UniProt Q9NYZ4 17-363); experiment: ELISA, coated Siglec-8 ECD
T4 construct: extracellular domain; also called Siglec-8 ECD; full Siglec-8 ECD
T4 sequence (Q9NYZ4 17-363): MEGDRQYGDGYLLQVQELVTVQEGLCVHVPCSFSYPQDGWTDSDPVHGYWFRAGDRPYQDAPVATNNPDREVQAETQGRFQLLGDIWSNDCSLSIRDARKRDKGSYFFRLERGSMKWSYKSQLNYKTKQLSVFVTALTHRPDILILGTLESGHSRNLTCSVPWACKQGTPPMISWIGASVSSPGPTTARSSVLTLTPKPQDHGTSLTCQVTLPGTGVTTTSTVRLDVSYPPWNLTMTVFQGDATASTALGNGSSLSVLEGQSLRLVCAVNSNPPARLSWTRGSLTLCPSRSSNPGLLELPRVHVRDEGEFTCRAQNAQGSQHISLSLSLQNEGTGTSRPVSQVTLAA

[5] = molecular target: T5, Dimeric Siglec-8 (human Siglec-8 ECD protein) (human, UniProt Q9NYZ4 17-363); experiment: SPR (Biacore), antibody captured, dimeric Siglec-8 as analyte, 1:1 global fit (avidity)
T5 construct: extracellular domain; Analyte of the Biacore avidity assay
T5 sequence (Q9NYZ4 17-363): as above
Procedure: Antibody avidity determination was carried out by SPR analysis using a Biacore T200. Binding of human Siglec-8 ECD protein to mouse, chimeric and humanized anti-Siglec-8 antibodies was measured on a […]. The capture antibodies (goat-anti-human-Fc and goat-anti-mouse-Fc from Jackson Immunoresearch) were immobilized on a CM5 chip according to manufacturer's protocol (Biacore, GE). Flow-cell 1, 2 and 3 were immobilized with anti-human, and flow cell 4 with anti-mouse antibodies. The assay was conducted at 25° C., at a flow rate of […]. Assay buffer was 20 mM Tris-HCl pH 8.3, 150 mM Sodium Chloride, 0.05% Polysorbate 20, 10% glycerol, 0.1% BSA, made in ultrapure water. Dimeric Siglec-8 (impurities of monomeric and oligomeric Siglec-8 were removed by size-exclusion chromatography) was diluted in assay buffer from 15 nM to […] with 2× dilutions. Antibodies were captured to a change of approximately 120 RU. Six-minute high performance injections were conducted, followed by 120-minute dissociations. Flow cells were regenerated with 50 mM glycine pH 1.5. Results were double blanked with an empty reference cell and multiple assay buffer injections, and analyzed with 1:1 global fit parameters.

[6] = molecular target: T6, human Siglec-8 on human cells (eosinophils, mast cells) (human, UniProt Q9NYZ4 17-499); experiment: cell-based or functional assay
T6 sequence (Q9NYZ4 17-499): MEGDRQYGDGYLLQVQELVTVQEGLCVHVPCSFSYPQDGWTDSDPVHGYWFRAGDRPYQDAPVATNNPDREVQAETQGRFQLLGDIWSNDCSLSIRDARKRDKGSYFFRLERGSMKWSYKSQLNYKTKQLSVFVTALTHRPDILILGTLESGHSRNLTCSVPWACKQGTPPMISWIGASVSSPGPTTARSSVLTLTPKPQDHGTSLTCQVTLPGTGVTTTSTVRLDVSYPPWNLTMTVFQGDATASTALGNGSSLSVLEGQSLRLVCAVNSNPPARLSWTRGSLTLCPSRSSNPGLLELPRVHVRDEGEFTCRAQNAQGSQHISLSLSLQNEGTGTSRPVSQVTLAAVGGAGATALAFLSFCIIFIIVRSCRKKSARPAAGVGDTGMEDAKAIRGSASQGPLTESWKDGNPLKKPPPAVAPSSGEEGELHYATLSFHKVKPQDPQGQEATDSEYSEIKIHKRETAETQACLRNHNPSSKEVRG

[7] = molecular target: T6, human Siglec-8 on human cells …; experiment: cell-based or functional assay; remark: listed apart in the source
[8] = molecular target: T7, baboon Siglec-8 Domains 1, 2, and 3 Fusion Protein (olive baboon (Papio anubis)); experiment: ELISA, coated fusion protein
T7 construct: fused to human Ig-Fc
T7 sequence (chain, as listed by the source limits assumed): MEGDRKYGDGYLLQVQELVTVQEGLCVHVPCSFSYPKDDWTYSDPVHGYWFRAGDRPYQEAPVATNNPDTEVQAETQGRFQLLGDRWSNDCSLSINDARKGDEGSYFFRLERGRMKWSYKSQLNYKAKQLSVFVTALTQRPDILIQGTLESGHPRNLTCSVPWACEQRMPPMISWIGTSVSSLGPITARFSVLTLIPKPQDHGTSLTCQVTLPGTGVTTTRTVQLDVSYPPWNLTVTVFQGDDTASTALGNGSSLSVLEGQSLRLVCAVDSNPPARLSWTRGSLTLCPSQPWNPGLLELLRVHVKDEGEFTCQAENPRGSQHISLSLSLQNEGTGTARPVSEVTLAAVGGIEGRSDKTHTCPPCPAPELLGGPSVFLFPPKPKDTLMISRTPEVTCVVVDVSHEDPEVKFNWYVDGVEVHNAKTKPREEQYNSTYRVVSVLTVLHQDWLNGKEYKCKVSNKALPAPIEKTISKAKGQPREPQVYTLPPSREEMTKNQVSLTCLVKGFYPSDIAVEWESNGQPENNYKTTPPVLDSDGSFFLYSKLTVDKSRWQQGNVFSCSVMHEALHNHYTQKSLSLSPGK
Procedure: as §1, §2

[9] = molecular target: T2, human Siglec-8 Domain 1 Fusion Protein; experiment: ELISA, coated fusion protein
Procedure: as §1, §2

binding result [1]: binds
binding result [2]: binds
binding result [3]: binds
EC50 [4]: 0.068 nM and 0.054 nM and 0.064 nM and 0.112 nM
Kd [5]: 0.017 nM
koff [5]: 1.11e-05 s⁻¹
kon [5]: 638000 M⁻¹ s⁻¹
Mean EC50 (ng/ml) for eosinophil depletion [6]: 4.3 ng/mL
B1: HEKA IgG1 antibody (antibody)
heavy: not shown
light: EIVLTQSPATLSLSPGERATLSCSATSSVSYMHWFQQKPGQAPRLLIYSTSNLASGIPARFSGSGSGTDFTLTISSLEPEDFAVYYCQQRSSYPFTFGPGTKLDIKRTVAAPSVFIFPPSDEQLKSGTASVVCLLNNFYPREAKVQWKVDNALQSGNSQESVTEQDSKDSTYSLSSTLTLSKADYEKHKVYACEVTHQGLSSPVTKSFNRGEC

binding result [8]: no binding (tested: 1 µg/ml)
Kd [5]: 0.028 nM
koff [5]: 1.54e-05 s⁻¹
kon [5]: 556000 M⁻¹ s⁻¹
Mean EC50 (ng/ml) for eosinophil depletion [6]: 6.8 ng/mL
B2: mouse 2E2 antibody (antibody, mouse IgG1, kappa)
heavy: QVQLKRASGPGLVAPSQSLSITCTVSGFSLTIYGAHWVRQPPGKGLEWLGVIWAGGSTNYNSALMSRLSISKDNSKSQVFLKINSLQTDDTALYYCARDGSSPYYYSMEYWGQGTSVTVSSAKTTPPSVYPLAPGSAAQTNSMVTLGCLVKGYFPEPVTVTWNSGSLSSGVHTFPAVLESDLYTLSSSVTVPSSPRPSETVTCNVAHPASSTKVDKKIVPRDCGCKPCICTVPEVSSVFIFPPKPKDVLTITLTPKVTCVVVDISKDDPEVQFSWFVDDVEVHTAQTQPREEQFNSTFRSVSELPIMHQDWLNGKEFKCRVNSAAFPAPIEKTISKTKGRPKAPQVYTIPPPKEQMAKDKVSLTCMITDFFPEDITVEWQWNGQPAENYKNTQPIMNTNGSYFVYSKLNVQKSNWEAGNTFTCSVLHEGLHNHHTEKSLSHSPG
light: QIILTQSPAIMSASPGEKVSITCSATSSVSYMHWFQQKPGTSPKLWIYSTSNLASGVPVRFSGSGSGTSYSLTISRMEAEDAATYYCQQRSSYPFTFGSGTKLEIKADAAPTVSIFPPSSEQLTSGGASVVCFLNNFYPKDINVKWKIDGSERQNGVLNSWTDQDSKDSTYSMSSTLTLTKDEYERHNSYTCEATHKTSTSPIVKSFNRNEC
notes: murine IgG1/kappa; also called m2E2; murine 2E2
Mean EC50 (ng/ml) for eosinophil killing (2 donors) [7]: 6.9 ng/mL

binding result [1]: binds
binding result [3]: binds
binding result [8]: no binding (tested: 1 µg/ml)
binding result [9]: no binding (tested: 1 µg/ml)
B3: murine 1C3 antibody (antibody, mouse IgG2a, V domains shown)
VH: EVQVVESGGDLVKSGGSLKLSCAASGFPFSSYAMSWVRQTPDKRLEWVAIISSGGSYTYYSDSVKGRFTISRDNAKNTLYLQMSSLKSEDTAMYYCARHETAQAAWFAYWGQGTLVTVSA
VL: QIVLTQSPAIMSASPGEKVTMTCSASSSVSYMHWYQQKSGTSPKRWIYDTSKLAYGVPARFSGSGSGTSYSLTISSMEAEDAATYYCQQWSSNPPTFGGGTKLEIK
notes: murine IgG2a heavy chain and kappa light chain
Mean EC50 (ng/ml) for eosinophil killing (2 donors) [7]: 7.7 ng/mL
